The term stoichiometry N denotes the number of molecules, sites or subunits per partner or assembly.

For 3 substances, stoichiometry N results are on record in paper PMC3448853.

Common to all, as to experiment: SEC
The target in assay [1] is aglycosylated Fc5 (E382V/M428I) variant of human IgG1 Fc (human).
Assay [2] concerns the target aglycosylated human IgG1 Fc (wild type), E. coli expressed (human).
Assay [3] concerns the target glycosylated human Fc (wild type), Bethyl Laboratories (human).

Substance “aglycosylated Fc5 (E382V/M428I) variant of human IgG1 Fc (domain or fragment)” showed a stoichiometry N in assay [1] of 2.

The substance “aglycosylated human IgG1 Fc (wild type), E. coli expressed (domain or fragment)” came in with a stoichiometry N in assay [2] of 2.

With “glycosylated human Fc (wild type), Bethyl Laboratories (domain or fragment)”, in assay [3], the stoichiometry N amounted to 2.
